Biological target: unprocessed hMPV PreF trimer (wild-type hMPV F ectodomain trimer, strain B2, C-terminal GCN4 trimerization … (human metapneumovirus, strain B2))
Assay: ELISA

B1: M4B06 IgG (antibody, V domains shown)
VH: EVQLLESGGGFVQPGGSLRLSCVVTGFTFSNYAMCWVRQAPGKGPEWVSGIGGSVGTTYYADSVKGRFTISRDNSKNTLYLQMSGLRAEDTARYYCAKVPSFFVFEDGFDMWGQGTVVTVSS
VL: QSVLTQPPSASGNPGQRVTISCYGSGSNIGNNYVHWFRQLPGTAPRLLIYNTDILVPGVPDRFSGSESGTSASLAISGLQSGDEADYFCAAWDDTLNGYVFGPGTTVTVL
  EC50: 4.4 ng/mL
